Measured values taken from PMC12086574 (Molecular Biology of the Cell, 2025).

Target: the molecule itself
Experiment: SEC

B1: His6-SEPT7G (domain or fragment)
chain: GFEFTLMVVGESGLGKSTLINSLFLTDLYSPEYPGPSHRIKKTVQVEQSKVLIKEGGVQLLLTIVDTPGFGDAVDNSNCWQPVIDYIDSKFEDYLNAESRVNRRQMPDNRVQCCLYFIAPSGHGLKPLDIEFMKRLHEKVNIIPLIAKADTLTPEECQQFKKQIMKEIQEHKIKIYEFPETDDEEENKLVKKIKDRLPLAVVGSNTIIEVNGKRVRGRQYPWGVAEVENGEHCDFTILRNMLIRTHMQDLKDVTNNVHYENYRSRKLAAVT
With B1 the “stoichiometry N” value was 2.
